Laboratory results as given in CN115925884A (SUN YAT SEN UNIV CANCER CENTER SUN YAT SEN UNIV AFFILIATED …, dated 2023).

Biological target: T1, EBV gB重组蛋白 (recombinant EB virus gB protein with C-terminal 6xHis tag) (EB病毒 (Epstein-Barr virus), UniProt P0C762 23-683, biotin label in the BLI assay (gB-Biotin), site not stated)
T1 construct: Biotinylated for BLI; unlabelled in the Western blot; also called gB蛋白; gB抗原
T1 chain: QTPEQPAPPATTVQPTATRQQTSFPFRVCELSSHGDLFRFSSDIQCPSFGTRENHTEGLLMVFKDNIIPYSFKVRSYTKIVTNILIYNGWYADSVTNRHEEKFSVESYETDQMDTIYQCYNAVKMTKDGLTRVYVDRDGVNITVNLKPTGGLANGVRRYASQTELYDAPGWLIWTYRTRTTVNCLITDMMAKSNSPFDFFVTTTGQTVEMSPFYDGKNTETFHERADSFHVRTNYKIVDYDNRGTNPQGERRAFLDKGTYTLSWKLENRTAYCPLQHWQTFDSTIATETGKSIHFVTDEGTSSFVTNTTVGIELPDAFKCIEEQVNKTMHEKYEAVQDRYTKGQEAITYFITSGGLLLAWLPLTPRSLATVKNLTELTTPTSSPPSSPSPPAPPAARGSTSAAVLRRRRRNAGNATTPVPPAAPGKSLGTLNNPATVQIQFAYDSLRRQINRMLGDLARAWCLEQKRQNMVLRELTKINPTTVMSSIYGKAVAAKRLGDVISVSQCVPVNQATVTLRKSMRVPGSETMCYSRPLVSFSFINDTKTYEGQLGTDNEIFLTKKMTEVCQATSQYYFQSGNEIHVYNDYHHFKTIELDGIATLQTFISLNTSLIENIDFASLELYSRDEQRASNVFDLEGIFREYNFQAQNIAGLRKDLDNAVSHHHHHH
Experiment: BLI, biotinylated gB on SA biosensor, 0-200 nM antibody in solution

B1: 4F10抗体 (monoclonal antibody against EB virus gB antigen) (antibody, V domains shown)
VH: QITLKESGAEMKKPGSSVKVSCKSSDTFKSYGIGWVRQAPGQGLEWMGGVIPVTGTRSYPQKFQGRVTITADESTSTAYMELSRLRSEDTAVYYCGRYMSYLYGMDVWGQGTTVTVSS
VL: DIVLTQTPLSSPVTLGQPASISCRSSQGLVYSDGDTYLNWFQQRPGQSPRRLIYKVSNRDSGVPDRFSGSGSGTDFTLRISRVEAEDVGVYYCMQGAHWPPTFGQGTKLEIK
notes: For flow cytometry the antibody carried a '403' fluorescent label; also called 抗体4F10
  Kd: 1 pM
